First the molecules themselves.
B1: Hammerhead Ribozyme (parent)
chain: ACCGGAUGUGCUUUCCGGUCUGAUGAGUCCGUGAGGACGAAACAG

In this series the parent is B1. Kind of series: self-cleavage, relative activity (ratio to wild type); higher = more cleavage; co-transcriptional.
Consider G5U U13G, for which the self-cleavage came to 1.02. To G10C C16U belongs 0.964. The figure for G31U G33U is 1.23; for G5A G18C it is 0.386; for G18C U28G it is 0.44. In the case of G36A A37U, the self-cleavage amounted to 0.533. To U9C A40U belongs 0.406.

On to U24A A44G, for which the self-cleavage came out at 1.68.

G4U U13G: the self-cleavage was 0.725.

For U7C G17C, the self-cleavage is 0.314. To G8A C11A belongs 1.28. The figure for C11U U19C is 0.484; for G5A G27A it is 0.776; for G36C A42C it is 0.321.

On to G36C A42G, for which the self-cleavage is 0.272. As for G4C U12G, the self-cleavage was 0.599. A23G: the self-cleavage was 0.439.

As to U13G G31U, the self-cleavage worked out at 0.82.

As to U28G A40G, the self-cleavage amounted to 0.261. With C2A C30A, the self-cleavage is 0.473.

For the variant U7G A42G, the self-cleavage was determined as 0.33.

As to C16G G35A, the self-cleavage is 0.459. As for G17A G36C, the self-cleavage came out at 0.263. The figure for G10U G36A is 0.65; for A26G G31C it is 0.324. To G5U U21G belongs 0.419; to U19G C43A, 0.319.

Turning to U9A U12A, the self-cleavage stood at 1.23. To G4C A6G belongs 0.358; to U9G U24G, 0.671.

Take G4A G33A: the self-cleavage turned out to be 0.55.

Turning to G27A C29G, the self-cleavage came to 0.412. The figure for U28A A37C is 0.398; for C20U A42U it is 0.322; for U7A G8U it is 1.52. To U13A A44G belongs 1.8; to G25A G27C, 0.355; to A1G A26U, 0.971. To C3A G4C belongs 0.216; to C29A A42C, 0.304; to C2A G4A, 0.322. Regarding G5C C15G, the self-cleavage worked out at 1.13. To C3A C29A belongs 0.406; to A1C G45C, 0.441.

Take C20A G25U: the self-cleavage was 0.619. The figure for G8U C30U is 0.942; for C16A G27U it is 0.534; for C30U A41C it is 0.374.

Turning to G27U G39A, the self-cleavage is 0.341. With A34G, the self-cleavage was 0.902. To A6U G31A belongs 0.748; to U28A C43U, 0.381. To C11U G31A belongs 1.13; to C2G G18C, 0.651.

On to U7A U9A, for which the self-cleavage stood at 0.874. To C43G G45U belongs 0.835; to C16A G36A, 0.523; to C16A U19A, 0.34. Consider A6C C11A, for which the self-cleavage was found to be 0.669. To G5C A40G belongs 0.237; to C15G U24G, 0.574. The figure for U13G C38A is 0.434; for U12A A26C it is 0.429. The figure for U19A A40G is 0.307; for C30G U32A it is 0.632.

Regarding C3G A40C, the self-cleavage turned out to be 0.284. The figure for U9A A37U is 0.593.

On to U7G G35U, for which the self-cleavage amounted to 0.911. To G33C A40C belongs 0.566. For the variant U9C U32A, the self-cleavage was 0.837. The figure for A6C A44C is 0.391; for G4C G36A it is 0.282; for U14G G36C it is 0.377. The figure for U32A A42G is 0.238. To U7C A42U belongs 0.312; to C2U C43U, 0.441; to A6C G18U, 0.428. As to G4C G17A, the self-cleavage stood at 0.298. For the variant A1C C3A, the self-cleavage turned out to be 0.426. The figure for A40C A41U is 0.441; for C11A U32G it is 1.01; for C11A U32C it is 1.06.

G25C G31A: the self-cleavage was found to be 0.339. The figure for G17U A41U is 0.327; for A6C U12G it is 0.991. For G8C U9A, the self-cleavage amounted to 0.907. With G25U C29G, the self-cleavage worked out at 0.313. The figure for G4C U9A is 0.613. Turning to A6G A44G, the self-cleavage was 1.08.

Consider C16U G17A, for which the self-cleavage was found to be 0.556. In the case of C2U C29U, the self-cleavage was determined as 1.29.

As for C11U U28G, the self-cleavage is 0.703. For the variant U9C G18A, the self-cleavage was 0.627.

Take C2U G8A: the self-cleavage came to 0.998. The figure for U21A G45A is 0.329; for C3G G25A it is 0.296. To U12A U14A belongs 0.798. Take G36C C38G: the self-cleavage was 0.369. The figure for A1U C38G is 0.33; for U12G G18A it is 0.583; for U13A C38A it is 0.808. With G8C U13G, the self-cleavage was 1.19. The figure for A37U A42U is 0.327; for G25A A42G it is 0.242. On to G33C C43A, for which the self-cleavage stood at 0.314. The figure for G36C G39A is 0.29. The figure for U19C G35C is 0.492; for C3G G39A it is 0.31; for U21G G33C it is 0.867. The figure for G5A A40G is 0.379. For the variant G33U A40U, the self-cleavage was determined as 0.391. The figure for C2G U32C is 0.332; for G5C C29A it is 0.256.

In the case of C15U U32A, the self-cleavage was 1. To G33A A40G belongs 0.503. In the case of U7A G17C, the self-cleavage came out at 0.481.

Regarding U7A G17A, the self-cleavage came to 0.498. On to G25U G33C, for which the self-cleavage was 0.305.

In the case of A23C G25A, the self-cleavage amounted to 0.331. Regarding G27C A40G, the self-cleavage was 0.297. C30G G33C: the self-cleavage stood at 0.807. To A34G A40U belongs 0.334. Consider A6C A26C, for which the self-cleavage was determined as 0.348. The figure for C3A A23G is 0.296; for A23C U24G it is 0.464. To U24A A42G belongs 0.24; to C3A U21A, 0.37.

Consider U19A A23U, for which the self-cleavage came to 0.386.

In the case of G22C A26U, the self-cleavage is 0.343. To G4A G39C belongs 0.319; to U21A G39A, 0.311; to U13C U21A, 0.754.

Regarding G4A U21A, the self-cleavage was 0.312.

On to C16U C20G, for which the self-cleavage was determined as 0.307. To G17C G27C belongs 0.354; to G27U A42C, 0.294.

With U24G C29A, the self-cleavage turned out to be 0.447. With G31C G35C, the self-cleavage turned out to be 0.779. To U21C G36U belongs 0.665. To C2G G8C belongs 0.302; to G18C U24A, 0.617. With U9A G22A, the self-cleavage was 0.282.

Turning to G8C C43U, the self-cleavage came out at 0.455. For U14A C43A, the self-cleavage was 0.333. To G8U G18A belongs 0.684; to U19C A40G, 0.332. To G17A G22C belongs 0.319; to U19A G22U, 0.3.

In the case of U28C, the self-cleavage came to 1.08. To G8U U24C belongs 0.829; to A26G A34G, 0.305; to A37G C38U, 0.534. The figure for G5A A37U is 0.603. The figure for G10U C16U is 1.17; for A6U A42G it is 0.307.

For the variant G18U G35U, the self-cleavage worked out at 0.532.

On to A44U G45C, for which the self-cleavage came to 1.86. The figure for G5A U21G is 0.378; for G5A U21A it is 0.57. Consider U19G G35U, for which the self-cleavage was 0.397. The figure for C15U G39U is 0.37; for A23U C38G it is 0.357. The figure for U21C A42C is 0.28; for G5C A41C it is 0.249; for A1G U9C it is 1.8. To U19G C20A belongs 0.316; to G4A G31C, 0.594.
